Among the data in article PMC6126693 are Ka values, retold here.

The data set concerns ZIC2 zinc finger domains (five ZnF). Nature of the data set: ITC. As to conditions: ITC: 300 mM NaCl, 50 mM potassium phosphate, pH 8.0, 25 C, EMSA: binding buffer not specified, 30 min 37 C, 6% PAGE 1x TBE 4 C.

Take antisense PCAT92 RNA: the Ka (RNA 60 uM into protein 5 uM) amounted to 1e+06 M⁻¹. “sense PCAT92 RNA (predicted ZIC2-binding region)” yielded a Ka of 1e+09 M⁻¹.
